PMC4122979, “The N-terminal portion of autoinhibitory element modulates human endothelial nitric-oxide synthase activity through coordinated controls of phosphorylation at Thr^495 and Ser^1177” (Bioscience Reports, 2014)

Target: CaM (calmodulin) (UniProt P0DP23)
Assay: CaM mobility shift on non-denaturing PAGE
Conditions: reference: unmodified T495 peptide; sites T495

- binding against the reference: weaker
Substance: eNOS (endothelial nitric-oxide synthase; heNOS) CaM-binding domain (CBD), 491-510 (from UniProt P29474) pT495 peptide
